Results reported in patent US20230250154.

Columns and labels:
[1] = system: T1, Tagged wild-type human A2M
T1 sequence: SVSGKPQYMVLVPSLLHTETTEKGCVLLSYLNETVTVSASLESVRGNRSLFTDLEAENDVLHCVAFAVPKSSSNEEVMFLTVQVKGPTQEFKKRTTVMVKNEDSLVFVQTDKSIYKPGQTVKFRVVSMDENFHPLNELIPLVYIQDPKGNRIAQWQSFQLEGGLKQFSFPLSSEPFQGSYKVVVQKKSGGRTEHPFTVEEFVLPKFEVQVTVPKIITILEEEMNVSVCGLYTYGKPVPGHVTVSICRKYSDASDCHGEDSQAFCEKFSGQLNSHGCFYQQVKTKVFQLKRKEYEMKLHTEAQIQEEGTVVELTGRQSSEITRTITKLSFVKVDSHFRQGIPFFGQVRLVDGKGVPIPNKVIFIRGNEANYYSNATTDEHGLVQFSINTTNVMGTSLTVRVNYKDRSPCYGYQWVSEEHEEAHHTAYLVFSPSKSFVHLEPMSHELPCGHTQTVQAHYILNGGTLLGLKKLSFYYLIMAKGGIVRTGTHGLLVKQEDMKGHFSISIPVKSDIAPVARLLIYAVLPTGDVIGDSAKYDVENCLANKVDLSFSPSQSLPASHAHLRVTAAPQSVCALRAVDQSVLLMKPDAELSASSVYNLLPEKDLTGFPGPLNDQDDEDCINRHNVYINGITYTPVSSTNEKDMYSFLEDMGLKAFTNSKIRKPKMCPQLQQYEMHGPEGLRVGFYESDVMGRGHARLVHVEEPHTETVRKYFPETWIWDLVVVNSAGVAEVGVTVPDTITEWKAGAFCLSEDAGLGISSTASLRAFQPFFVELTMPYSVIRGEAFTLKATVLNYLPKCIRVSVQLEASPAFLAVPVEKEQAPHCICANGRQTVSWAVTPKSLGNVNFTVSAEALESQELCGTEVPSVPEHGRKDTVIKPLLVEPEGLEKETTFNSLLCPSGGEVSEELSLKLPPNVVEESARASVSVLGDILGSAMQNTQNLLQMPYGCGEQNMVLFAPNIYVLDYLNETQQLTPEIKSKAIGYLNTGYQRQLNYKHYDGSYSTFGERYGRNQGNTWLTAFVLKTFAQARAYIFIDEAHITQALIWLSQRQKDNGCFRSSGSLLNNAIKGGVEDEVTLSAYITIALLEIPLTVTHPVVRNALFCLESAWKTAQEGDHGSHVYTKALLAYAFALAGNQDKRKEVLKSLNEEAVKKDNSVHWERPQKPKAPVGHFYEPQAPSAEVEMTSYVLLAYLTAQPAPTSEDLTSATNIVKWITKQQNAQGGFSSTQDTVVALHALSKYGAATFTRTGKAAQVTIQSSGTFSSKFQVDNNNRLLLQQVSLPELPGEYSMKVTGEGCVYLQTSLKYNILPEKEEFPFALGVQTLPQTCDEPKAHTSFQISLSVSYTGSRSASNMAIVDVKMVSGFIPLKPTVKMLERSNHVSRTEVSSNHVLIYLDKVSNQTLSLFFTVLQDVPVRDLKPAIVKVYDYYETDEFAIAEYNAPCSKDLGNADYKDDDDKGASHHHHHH

[2] = system: the four selected A2M variants

## chymotrypsin
[1]
  slope of FTC-casein digestion (fluorescent proteolysis assay): the variants are all capable of inhibiting various proteases, including trypsin and chymotrypsin approximately equally, to the wild-type A2M
[2]
  slope of FTC-casein digestion (fluorescent proteolysis assay): the variants are all capable of inhibiting various proteases, including trypsin and chymotrypsin approximately equally, to the wild-type A2M
